The results in this text go back to article PMC4520572.

For this assay, the target named is soluble neuronal SNARE complex (unlabeled) (UniProt P32851).
Chain of soluble neuronal SNARE complex (unlabeled) (P32851 1-265 S249C/K253C, chain 1 of 3): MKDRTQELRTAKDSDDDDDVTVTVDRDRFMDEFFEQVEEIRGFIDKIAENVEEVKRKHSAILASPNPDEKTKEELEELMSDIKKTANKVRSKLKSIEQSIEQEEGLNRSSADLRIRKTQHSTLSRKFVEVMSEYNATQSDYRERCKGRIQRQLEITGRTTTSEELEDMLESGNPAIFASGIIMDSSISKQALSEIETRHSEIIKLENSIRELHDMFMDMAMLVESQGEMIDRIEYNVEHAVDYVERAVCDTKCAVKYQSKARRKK
Chain of soluble neuronal SNARE complex (unlabeled) (P60881 other isoform, or with tags, fused parts or gaps, chain 2 of 3, further chain): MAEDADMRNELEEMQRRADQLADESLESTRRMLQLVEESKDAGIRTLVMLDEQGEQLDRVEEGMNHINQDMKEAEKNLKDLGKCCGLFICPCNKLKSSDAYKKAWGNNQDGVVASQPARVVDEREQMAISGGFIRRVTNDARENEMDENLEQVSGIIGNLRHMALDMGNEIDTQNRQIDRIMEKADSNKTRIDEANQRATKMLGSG
Chain of soluble neuronal SNARE complex (unlabeled) (P63045 1-96, chain 3 of 3, further chain): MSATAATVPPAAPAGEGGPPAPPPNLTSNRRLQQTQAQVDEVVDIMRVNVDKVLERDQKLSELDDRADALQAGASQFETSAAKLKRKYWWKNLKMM

Chain of N-Ethylmaleimide-sensitive factor (NSF) (P18708 whole entry): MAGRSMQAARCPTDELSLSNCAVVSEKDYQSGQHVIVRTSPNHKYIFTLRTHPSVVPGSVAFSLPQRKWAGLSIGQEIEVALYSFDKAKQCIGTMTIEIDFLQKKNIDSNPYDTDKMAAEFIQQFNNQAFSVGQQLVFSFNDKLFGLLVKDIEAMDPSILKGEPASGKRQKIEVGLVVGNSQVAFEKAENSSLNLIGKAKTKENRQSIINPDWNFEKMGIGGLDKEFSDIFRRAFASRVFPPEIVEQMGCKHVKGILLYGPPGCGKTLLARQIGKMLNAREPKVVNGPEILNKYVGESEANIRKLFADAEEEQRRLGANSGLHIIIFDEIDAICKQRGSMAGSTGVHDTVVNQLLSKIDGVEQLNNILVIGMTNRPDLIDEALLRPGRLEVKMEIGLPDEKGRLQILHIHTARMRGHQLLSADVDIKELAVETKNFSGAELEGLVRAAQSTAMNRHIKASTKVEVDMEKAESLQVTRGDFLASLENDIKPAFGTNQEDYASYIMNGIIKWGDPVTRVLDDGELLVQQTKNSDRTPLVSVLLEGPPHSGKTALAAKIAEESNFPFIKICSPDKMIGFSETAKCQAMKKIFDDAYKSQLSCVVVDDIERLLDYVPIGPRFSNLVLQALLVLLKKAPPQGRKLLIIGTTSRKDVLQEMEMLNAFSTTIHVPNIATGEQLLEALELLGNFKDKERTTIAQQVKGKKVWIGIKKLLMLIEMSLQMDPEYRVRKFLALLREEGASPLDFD
Chain of α-soluble NSF attachment protein (α-SNAP) (P54921 whole entry): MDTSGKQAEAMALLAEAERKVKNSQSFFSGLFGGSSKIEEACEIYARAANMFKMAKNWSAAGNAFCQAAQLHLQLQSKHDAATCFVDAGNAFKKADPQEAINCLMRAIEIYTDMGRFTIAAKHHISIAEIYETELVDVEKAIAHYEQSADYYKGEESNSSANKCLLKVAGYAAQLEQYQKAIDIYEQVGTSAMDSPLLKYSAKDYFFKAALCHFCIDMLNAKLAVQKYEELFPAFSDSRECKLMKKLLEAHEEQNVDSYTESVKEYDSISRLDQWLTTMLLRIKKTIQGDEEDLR

The substance “N-Ethylmaleimide-sensitive factor (NSF) (from UniProt P18708 1-744) (enzyme)” yielded an SNARE-dependent activation of the ATPase activity of NSF (coupled ATPase assay, 37 °C, with α-SNAP, KCl and NaCl omitted) of 26 fold.

Take “α-soluble NSF attachment protein (α-SNAP) (from UniProt P54921 1-295) (natural protein)”: the SNARE-dependent activation of the ATPase activity of NSF (coupled ATPase assay, 37 °C; activation was dependent on α-SNAP) was 26 fold.
